Legend:
[1] = biological target: PC4 (full length wild type) (Homo sapiens, UniProt P53999 SEQ:1-127); test: EMSA; complete binding at 352 nM PC4 without XPG; second shifted band at 704 nM; 2.5 nM DNA, 110 mM KCl, 1 mM EDTA, poly(dI-dC), pH 7.5, room temp; with XPG (41 nM) present complete binding at 44 nM; conditions: tags: expressed in E. coli BL21(DE3); chain copies: 2 (inferred); label: 5'-32P on 10T-strand; duplex with central 10-nt unpaired bubble
Description: (§1) 2.5 nM of the 10-nt bubble DNA substrate was incubated with 41 nM of purified XPG (lanes 2-7) or without XPG (lanes 9-13). Reaction mixtures were supplemented with 44 nM (lanes 3 and 9), 88 nM (lanes 4 and 10), 176 nM (lanes 5 and 11), 352 nM (lanes 6 and 12) and 704 nM (lanes 7 and 13) of human PC4 protein, respectively. Samples were loaded onto a 4.5% native gel and electrophoresis was conducted at 150 V for 2 hours at 4° C. The gel was dried and exposed on a phosphorimager screen. No protein was added in lanes 1 and 8.
(§2) The 10T-strand was 5′-end labeled with T4 polynucleotide kinase and [γ-³²P]ATP and annealed with the complementary 10C-strand by heating for 3 minutes at 90° C. and cooled to room temperature. […] The gels were visualized by phosphorimager and analyzed using ImageQuant™ software (Molecular Dynamics).
(§3) To determine if XPG affects PC4 interaction with DNA bubbles, we pre-incubated the 10 bp bubble DNA with XPG and then added PC4 at varying concentrations (FIG. 9A, lanes 3-7). XPG strongly stimulated PC4 binding, with complete binding achieved at the lowest PC4 protein concentration analyzed (44 nM, lane 3) as compared to 352 nM in the absence of XPG Correspondingly, the tetramer-bound complex appears at lower concentrations (352 nM, lane 6) in the presence of XPG In no case did we observe a trimeric complex of XPG, PC4, and DNA. […]

XPG = biological target: T1, XPG (Homo sapiens, UniProt P28715 P28715:1-1186); test: EMSA; 41 nM XPG gives slowly migrating complex; displaced by PC4; 110 mM KCl, 1 mM EDTA, pH 7.5, room temp; conditions: tags: expressed in High5 insect cells (pFASTBAC); label: 5'-32P on 10T-strand; duplex with central 10-nt unpaired bubble
T1 sequence: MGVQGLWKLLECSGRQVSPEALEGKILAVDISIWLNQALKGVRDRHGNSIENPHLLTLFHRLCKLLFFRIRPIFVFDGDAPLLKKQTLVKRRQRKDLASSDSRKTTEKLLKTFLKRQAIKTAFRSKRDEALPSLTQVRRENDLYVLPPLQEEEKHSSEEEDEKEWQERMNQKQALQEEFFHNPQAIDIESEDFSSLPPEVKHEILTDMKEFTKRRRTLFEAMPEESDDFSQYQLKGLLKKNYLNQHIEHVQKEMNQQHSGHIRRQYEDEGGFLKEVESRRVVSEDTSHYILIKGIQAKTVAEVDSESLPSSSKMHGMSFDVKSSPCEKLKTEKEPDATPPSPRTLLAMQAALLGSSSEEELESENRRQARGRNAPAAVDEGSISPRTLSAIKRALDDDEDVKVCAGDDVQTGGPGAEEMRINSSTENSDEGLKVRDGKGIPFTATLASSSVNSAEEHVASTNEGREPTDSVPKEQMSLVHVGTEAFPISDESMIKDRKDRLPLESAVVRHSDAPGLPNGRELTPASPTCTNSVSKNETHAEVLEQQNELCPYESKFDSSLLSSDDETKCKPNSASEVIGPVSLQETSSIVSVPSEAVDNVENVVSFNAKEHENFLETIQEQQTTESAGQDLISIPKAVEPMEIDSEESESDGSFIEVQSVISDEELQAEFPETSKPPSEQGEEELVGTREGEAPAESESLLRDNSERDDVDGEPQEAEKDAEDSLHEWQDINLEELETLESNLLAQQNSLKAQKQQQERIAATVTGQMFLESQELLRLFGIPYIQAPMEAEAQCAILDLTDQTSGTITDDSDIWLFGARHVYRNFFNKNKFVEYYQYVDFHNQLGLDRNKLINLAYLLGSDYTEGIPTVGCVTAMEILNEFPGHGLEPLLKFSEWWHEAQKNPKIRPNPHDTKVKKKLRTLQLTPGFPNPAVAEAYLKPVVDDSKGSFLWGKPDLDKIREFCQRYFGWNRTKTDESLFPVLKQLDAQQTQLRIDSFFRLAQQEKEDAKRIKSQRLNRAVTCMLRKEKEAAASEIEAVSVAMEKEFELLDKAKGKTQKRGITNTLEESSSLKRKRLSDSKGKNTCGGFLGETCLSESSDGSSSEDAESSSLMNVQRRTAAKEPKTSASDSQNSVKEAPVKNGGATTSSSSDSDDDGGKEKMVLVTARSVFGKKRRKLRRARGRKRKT
Description: as §1, §2, §3

B1: 10-nt bubble DNA (10T/10C) (structured_DNA)
DNA 1: GGGCAGACAACGTGGCGCTGTTTTTTTTTTGTGTCCTAGCACAGCGTATG
DNA 2: CATACGCTGTGCTAGGACACCCCCCCCCCCCAGCGCCACGTTGTCTGCCC
binding result [1]: binds | binding result (XPG): binds
